# According to article doi:10.1101/2023.06.02.543457 (bioRxiv, 2023):
# Molecular target: the molecule itself
# Assay: cryo-EM structure
protein,measurement,value
"Rsph16 (natural protein, mouse, UniProt Q80Y75 1-316, looked up) MGLDYYAVLQVTRNSEDAQIKKAYRKLALKNHPLKSSEPGAPEIFKQIAEAYDVLSDPVKRGIYDKFGEEGLKGGIPLEFGSQTPWTTGYVFHGNPDKVFHEFFGGDNPFSEFFDAEGNDIDLNFGGLWGRGVQKQDPPIERDLYLSLEDLFFGCTKKIKISRRVLNEDRYSSTIKDKILTIDVRPGWRQGTRITFEKEGDQGPNIIPADIIFIVKEKLHPRFRREHDNLFFVYPIPLGKALTCCTVEVKTLDDRLLNIPINDIVHPKYFKIVPGEGMPLPENPSKKGDLFIFFDIQFPTRLTPQKKQMLRQALLT",stoichiometry N,2
